From article PMC7127234

How the values were obtained:
[1] = test system: CCCCN1C(=O)c2cccc3c(NC(=O)[C@@H]4CCCN4C(=O)CN)ccc(c23)C1=O; experiment: purified protein; settings: Gly-Pro group cleaved by DPP-IV to release BAN
[2] = test system: Cc1cc(=O)oc2cc(NC(=O)[C@@H]3CCCN3C(=O)CN)ccc12; experiment: purified protein

“DPP-IV (dipeptidyl peptidase IV) (Homo sapiens)” was tested, and the Km [1] was 42.93 µM and the Km [2] was 237.80 µM.
